# From US9386938B2, “Methods for collagen imaging” (Collagen Medical, LLC, priority 2005, dated 2016)
# Bridge positions count the residues as written; N and C are the ends. Square brackets hold non-standard residues; d marks the D form. Ends that are not written are not given here. Glu‑DTPA‑Gd = N-terminal Glu-DTPA-Gd chelate (gadolinium DTPA complex on glutamic acid); bb‑DTPA gadolinium tetramer diacid = not defined here; AEEA = NCCOCCOCC(=O)O
# Experiments:
# [1] = biological target: T1, human collagen type I (Homo sapiens, UniProt P02452+P08123); assay: Dried collagen assay (DCA), percent bound to dried human collagen; type: binding
# T1 construct: Acid soluble human collagen extracted from placenta; purchased Sigma C7774; host or cells: human placenta (tissue extract)
# T1 sequence (P02452 162-1218 limits assumed): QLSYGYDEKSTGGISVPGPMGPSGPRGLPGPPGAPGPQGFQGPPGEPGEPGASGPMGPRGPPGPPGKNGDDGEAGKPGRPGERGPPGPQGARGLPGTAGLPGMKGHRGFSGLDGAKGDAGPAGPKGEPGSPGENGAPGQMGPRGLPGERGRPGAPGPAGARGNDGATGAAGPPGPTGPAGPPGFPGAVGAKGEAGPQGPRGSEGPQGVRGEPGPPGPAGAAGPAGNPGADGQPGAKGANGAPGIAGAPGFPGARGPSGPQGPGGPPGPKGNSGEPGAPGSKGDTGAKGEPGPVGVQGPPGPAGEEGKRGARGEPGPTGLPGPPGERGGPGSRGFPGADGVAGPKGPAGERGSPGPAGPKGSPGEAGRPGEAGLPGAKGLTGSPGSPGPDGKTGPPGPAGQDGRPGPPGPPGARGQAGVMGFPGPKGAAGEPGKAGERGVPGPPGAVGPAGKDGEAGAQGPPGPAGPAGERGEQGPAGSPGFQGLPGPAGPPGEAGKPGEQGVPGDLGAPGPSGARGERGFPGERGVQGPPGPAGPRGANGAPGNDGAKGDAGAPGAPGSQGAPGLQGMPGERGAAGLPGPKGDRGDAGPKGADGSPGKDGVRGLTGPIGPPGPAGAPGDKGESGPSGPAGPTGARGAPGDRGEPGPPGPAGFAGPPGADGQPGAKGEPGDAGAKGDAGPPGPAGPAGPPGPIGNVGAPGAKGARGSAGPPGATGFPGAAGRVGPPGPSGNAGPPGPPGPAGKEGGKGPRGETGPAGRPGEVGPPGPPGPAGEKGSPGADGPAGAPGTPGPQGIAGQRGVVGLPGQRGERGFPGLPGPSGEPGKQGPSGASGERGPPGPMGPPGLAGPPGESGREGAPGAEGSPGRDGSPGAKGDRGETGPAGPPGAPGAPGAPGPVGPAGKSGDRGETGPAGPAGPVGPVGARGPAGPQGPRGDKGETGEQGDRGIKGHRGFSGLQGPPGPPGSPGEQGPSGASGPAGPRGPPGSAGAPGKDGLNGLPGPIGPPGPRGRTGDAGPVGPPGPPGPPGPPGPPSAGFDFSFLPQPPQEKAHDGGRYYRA
# T1 sequence (P08123 80-1119 limits assumed): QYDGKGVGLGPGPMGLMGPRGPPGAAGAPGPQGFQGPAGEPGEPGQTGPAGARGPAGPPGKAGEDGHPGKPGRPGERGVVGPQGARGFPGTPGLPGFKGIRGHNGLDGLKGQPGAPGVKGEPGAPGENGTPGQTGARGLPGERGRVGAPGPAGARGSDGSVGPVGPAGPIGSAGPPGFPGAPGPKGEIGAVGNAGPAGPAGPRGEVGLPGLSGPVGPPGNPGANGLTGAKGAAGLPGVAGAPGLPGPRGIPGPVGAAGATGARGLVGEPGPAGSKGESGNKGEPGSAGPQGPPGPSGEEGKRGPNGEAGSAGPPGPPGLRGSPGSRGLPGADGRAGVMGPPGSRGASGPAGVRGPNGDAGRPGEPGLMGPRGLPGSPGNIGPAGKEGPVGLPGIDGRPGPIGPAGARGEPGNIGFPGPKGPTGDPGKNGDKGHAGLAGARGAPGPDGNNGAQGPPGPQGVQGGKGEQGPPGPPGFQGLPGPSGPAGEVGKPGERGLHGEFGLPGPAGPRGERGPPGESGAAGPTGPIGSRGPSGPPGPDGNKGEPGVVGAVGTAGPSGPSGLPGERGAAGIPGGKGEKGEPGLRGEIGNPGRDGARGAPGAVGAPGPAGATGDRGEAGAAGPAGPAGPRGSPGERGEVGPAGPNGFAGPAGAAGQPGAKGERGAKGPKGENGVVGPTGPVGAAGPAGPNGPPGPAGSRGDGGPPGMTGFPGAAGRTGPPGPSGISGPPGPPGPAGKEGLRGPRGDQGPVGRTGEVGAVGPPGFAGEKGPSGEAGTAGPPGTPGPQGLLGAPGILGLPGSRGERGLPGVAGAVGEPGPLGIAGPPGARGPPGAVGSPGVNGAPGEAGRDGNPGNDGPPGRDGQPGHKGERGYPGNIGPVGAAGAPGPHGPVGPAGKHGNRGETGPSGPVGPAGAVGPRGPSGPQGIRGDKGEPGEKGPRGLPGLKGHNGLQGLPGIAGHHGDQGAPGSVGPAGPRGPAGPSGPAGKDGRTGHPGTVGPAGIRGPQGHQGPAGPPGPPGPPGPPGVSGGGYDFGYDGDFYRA
# Experimental: Peptides identified using the phage-display protocol were screened using dried collagen assays (DCA) as described in A.-D. below.
# Acid soluble human collagen extracted from placenta (Sigma, cat#C7774, lot#083K375) is dissolved in 15 mM HCl (3.5 mg/ml) by vortexing and gently shaking for 3-4 hours at 4° C. The acid soluble collagen is dissolved against PBS, pH 7.4 (three buffer exchanges are used). […] Percent gelation (fibril formation) of the collagen is determined by incubating 10 μM collagen (3.3 mg/ml) at 37° C. for 6 hours. A typical percent gelation is 60%.
# [2] = biological target: T2, rat collagen type I (Rattus norvegicus, UniProt P02454+P02466); assay: Dried collagen assay (DCA), percent bound to dried rat collagen; type: binding
# T2 construct: Rat collagen (acid soluble, type I, rat tail); purchased Upstate USA, Inc 08-115; host or cells: rat tail (tissue extract)
# T2 sequence (P02454 152-1207 limits assumed): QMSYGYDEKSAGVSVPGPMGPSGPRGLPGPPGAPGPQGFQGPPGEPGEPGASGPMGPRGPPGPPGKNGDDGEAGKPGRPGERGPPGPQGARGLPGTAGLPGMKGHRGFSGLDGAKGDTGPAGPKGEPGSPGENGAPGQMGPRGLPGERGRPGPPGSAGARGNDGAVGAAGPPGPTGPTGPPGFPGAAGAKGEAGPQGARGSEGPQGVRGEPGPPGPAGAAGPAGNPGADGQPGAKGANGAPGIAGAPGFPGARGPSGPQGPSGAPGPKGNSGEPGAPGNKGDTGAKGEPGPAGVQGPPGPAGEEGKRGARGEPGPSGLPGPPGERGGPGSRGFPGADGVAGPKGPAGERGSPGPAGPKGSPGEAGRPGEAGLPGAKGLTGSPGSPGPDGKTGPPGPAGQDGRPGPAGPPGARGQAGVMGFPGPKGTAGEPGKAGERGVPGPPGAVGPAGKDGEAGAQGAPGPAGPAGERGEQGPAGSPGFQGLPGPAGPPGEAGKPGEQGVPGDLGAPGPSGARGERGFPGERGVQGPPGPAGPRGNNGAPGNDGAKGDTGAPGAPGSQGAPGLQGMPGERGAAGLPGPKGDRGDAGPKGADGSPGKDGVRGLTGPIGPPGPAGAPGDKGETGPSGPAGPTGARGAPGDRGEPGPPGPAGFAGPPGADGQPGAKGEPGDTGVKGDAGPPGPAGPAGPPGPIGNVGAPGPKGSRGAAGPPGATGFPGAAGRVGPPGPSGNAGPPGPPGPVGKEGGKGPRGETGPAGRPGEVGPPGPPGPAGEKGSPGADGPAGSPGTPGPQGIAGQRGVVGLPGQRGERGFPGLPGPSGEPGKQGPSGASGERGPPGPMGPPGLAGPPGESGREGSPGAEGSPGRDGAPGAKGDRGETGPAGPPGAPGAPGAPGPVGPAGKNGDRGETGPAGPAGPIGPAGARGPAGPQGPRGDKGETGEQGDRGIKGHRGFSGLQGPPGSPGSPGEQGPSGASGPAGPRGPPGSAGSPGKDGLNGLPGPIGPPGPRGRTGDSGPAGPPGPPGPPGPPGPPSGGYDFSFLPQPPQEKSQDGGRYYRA
# T2 sequence (P02466 86-1125 limits assumed): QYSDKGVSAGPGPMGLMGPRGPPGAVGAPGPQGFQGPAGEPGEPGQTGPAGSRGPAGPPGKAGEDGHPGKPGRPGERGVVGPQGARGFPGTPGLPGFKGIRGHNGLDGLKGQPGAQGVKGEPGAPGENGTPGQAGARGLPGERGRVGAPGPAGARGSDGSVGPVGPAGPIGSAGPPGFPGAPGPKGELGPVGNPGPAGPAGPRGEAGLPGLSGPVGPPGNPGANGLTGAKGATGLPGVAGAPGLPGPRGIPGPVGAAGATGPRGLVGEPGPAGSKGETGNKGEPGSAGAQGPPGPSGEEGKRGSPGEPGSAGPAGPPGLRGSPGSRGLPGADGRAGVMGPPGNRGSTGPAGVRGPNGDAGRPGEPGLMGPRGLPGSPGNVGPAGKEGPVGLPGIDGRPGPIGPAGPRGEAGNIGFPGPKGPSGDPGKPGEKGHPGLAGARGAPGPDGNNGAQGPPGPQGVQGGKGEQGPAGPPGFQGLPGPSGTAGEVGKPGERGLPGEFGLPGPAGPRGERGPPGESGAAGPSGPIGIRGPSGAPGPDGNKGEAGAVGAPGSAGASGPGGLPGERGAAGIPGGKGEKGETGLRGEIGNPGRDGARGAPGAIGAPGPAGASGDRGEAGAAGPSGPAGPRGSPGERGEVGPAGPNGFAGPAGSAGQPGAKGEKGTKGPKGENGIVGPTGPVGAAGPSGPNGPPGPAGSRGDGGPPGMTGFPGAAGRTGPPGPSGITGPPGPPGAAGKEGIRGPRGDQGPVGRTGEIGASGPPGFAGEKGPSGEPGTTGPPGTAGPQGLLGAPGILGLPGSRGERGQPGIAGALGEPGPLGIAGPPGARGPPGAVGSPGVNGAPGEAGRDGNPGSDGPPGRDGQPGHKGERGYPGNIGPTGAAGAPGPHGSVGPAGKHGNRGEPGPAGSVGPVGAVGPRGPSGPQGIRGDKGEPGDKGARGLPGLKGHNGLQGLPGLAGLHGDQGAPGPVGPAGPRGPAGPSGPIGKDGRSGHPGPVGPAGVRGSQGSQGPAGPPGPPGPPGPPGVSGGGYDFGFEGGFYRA
# Experimental: For the final assay, a 1:10 volume of 10×PBS (100 mM NaH2PO4, 1.5 M NaCl pH 7.4) is added to the collagen solution (final 1×PBS) and incubated at 37° C. for 2 hours. The gelation is typically 90%.
# [3] = system: perfused Langendorff rat heart; assay: Equilibrium binding to perfused Langendorff rat heart
# Experimental: (§1) After deep anesthesia with pentobarbital (80 mg/kg ip), the chest cavity of a male Sprague Dawley rat (300 g) was opened, retracted and the heart was removed immediately and placed in an ice-cold normal Krebs-Henseleit (K-H) solution (NaCl, 118 mM; KCl, 4.7 mM; CaCl2, 2.5 mM; MgSO4, 1.2 mM; KH2PO4, 1.2 mM; NaHCO3, 25 mM; glucose, 5.5 mM). A K-H buffer filled 20 Gauge needle was inserted into the apex of the heart penetrating into the bottom of the chamber. This was attached to a pressure transducer used to record and monitor heart function. Perfusion pressure (˜60 mmHg) was monitored using a second transducer. The heart was perfused at a constant flow rate of 10-12 mL/min with 37° C. Krebs-Henseleit buffer saturated with a mixture of 95% O2 and 5% CO2 gas. The heart was paced at 300 beats/min.
# Two peptide test articles, a high collagen binding peptide (SEQ ID NO: 144) and a low collagen binding peptide (SEQ ID NO: 173), are compared to GdDTPA. The appropriate test article was added to the K-H buffer solution to a total concentration of either 3 or 30 μM. Also added to the K-H buffer was a radiotracer analog of each peptide or GdDTPA. For the peptides, the radiotracer was an aliquot of the appropriate 1-125 labeled peptide derivative (see Example 5 for protocol). For GdDTPA, the tracer added was Tc-99m labeled DTPA. The amount of radioactivity added to the buffer solution was 1-5 μCi.
# The heart was perfused for a period of 10 minutes and the perfusion solution was recycled through the heart. The total volume of K-H buffer used was 50-60 mL. After 10 min, the heart was removed from the apparatus and any connective tissue was removed. The heart was opened, fluid in the chambers drained, and the interior blotted dry with filter paper. The heart was then weighed and the radioactivity in the heart measured with a Packard Cobra 5003 Gamma Scintillation counter. An aliquot of the K-H buffer was also weighed and counted. Studies were performed at least in duplicate.
# The dual peptide gadolinium tetramer (Compound ID 803) was compared to GdDTPA. Compound ID 803 and GdDTPA were added to the K-H buffer solution to a total concentration of 3 μM. Also added to the K-H buffer was a radiotracer analog of Compound ID 803 or GdDTPA. For Compound ID 803, the radiotracer was an aliquot of the In-111 labeled compound. For GdDTPA, the tracer added was Tc-99m labeled DTPA. The amount of radioactivity added to the buffer solution was 1-5 μCi.
# [4] = system: perfused Langendorff rat heart; assay: Washout kinetics from perfused Langendorff rat heart; conditions: perfusion with buffer for 10 minutes
# Experimental: as §1
# A Langendorff rat heart preparation was perfused with K-H buffer at a rate of 10-12 mL/min. A one mL solution containing SEQ ID NO: 144 (300 μM), radiolabeled (I-125) SEQ ID NO: 144 (1-6 μCi), GdDTPA (300 μM), and radiolabeled (Tc-99m) DTPA (5-8 μCi) was infused into the heart at a rate of 1 mL/min. After the infusion was finished, the heart was either removed or perfusion was allowed to continue for an additional 10 minutes and then the heart was removed. The perfusion buffer was not recirculated through the heart. After removal of any connective tissue, the heart was opened, fluid in the chambers drained, and the interior blotted dry with filter paper. The heart was then weighed and the radioactivity in the heart measured with a Packard Cobra 5003 Gamma Scintillation counter. […] An aliquot of the K-H buffer was also weighed and counted. Concentration estimates were decay corrected. Studies were performed at least in duplicate.
# A Langendorff rat heart preparation was perfused with K-H buffer at a rate of 10-12 mL/min. […] The heart was then weighed and the radioactivity in the heart measured with a Packard Cobra 5003 Gamma Scintillation counter. […] An aliquot of the K-H buffer was also weighed and counted. […]
# [5] = Table 2, TN-8 peptides, 5 μM peptide, PBS pH 7.4
# [6] = Table 4, TN-10 peptides, 5 μM peptide, PBS pH 7.4
# [7] = Table 13, TN-10 peptides with -G- linker, alanine scanning
# [8] = Table 14, TN-6 peptides, D-amino acid scanning
# [9] = Table 15, TN-10 peptides with -G- linker, D-amino acid scanning
compound,measurement,setting,value
2 (WGWCEWAQNNCWNY) [compound 2],Dried Human Collagen Binding,[1]; [5],14%
3 (PWWCHEMPSMCFGF) [compound 3],Dried Human Collagen Binding,[1]; [5],2%
36 (SWSCGGDHNAWKCQYS) [compound 36],Dried Human Collagen Binding,[1]; [6],7%
37 (LWNCHGTDANWKCVLN) [compound 37],Dried Human Collagen Binding,[1]; [6],7%
38 (GWSCHGDAADWPCQWS) [compound 38],Dried Human Collagen Binding,[1]; [6],6%
39 (GWQCSGDASVWNCDWI) [compound 39],Dried Human Collagen Binding,[1]; [6],6%
65 (KWECVHTKGEWYCETK) [compound 65],Dried Human Collagen Binding,[1]; [6],7%
112 (AKACSVHDEFGCLIS; disulfide 4-12 (inferred); not fully specified (C-terminus)) [compound 112],Dried Human Collagen Binding,"[1]; Table 8, TN-9 peptides",9%
113 (FSECVWVNAYQCEYF; disulfide 4-12 (inferred); not fully specified (C-terminus)) [compound 113],Dried Human Collagen Binding,"[1]; Table 8, TN-9 peptides",3%
130 (WWACQKGRHDWEKCRWL; disulfide 4-14 (inferred); not fully specified (C-terminus)) [compound 130],Dried Human Collagen Binding,"[1]; Table 11, TN-11 peptides",32%
137 (YHACYQAGCWAW; disulfide 4-9 (inferred); not fully specified (C-terminus)) [compound 137],% Collagen Binding Dried Rat,"[2]; Table 12, TN-6 peptides, alanine scanning",7%
142 (QWTCSADEYTWHCNYE; disulfide 4-13 (inferred); not fully specified (C-terminus)) [compound 142],% Collagen Binding Dried Rat,[2]; [7],6%
147 (QWTCSGDEYTAHCNYE; disulfide 4-13 (inferred); not fully specified (C-terminus)) [compound 147],% Collagen Binding Dried Human,[1]; [7],5%
159 (YHACYQAGCWIW) [compound 159],% Collagen Binding Dried Human,[1]; [8],7%
163 (YHACYQAGCWIW) [compound 163],% Collagen Binding Dried Rat,[2]; [8],53%
165 (QWTCSGDEYTWHCNYE) [compound 165],% Collagen Binding Dried Rat,[2]; [9],4%
same,% Collagen Binding Dried Human,[1]; [9],2%
166 (QWTCSGDEYTWHCNYE) [compound 166],% Collagen Binding Dried Rat,[2]; [9],3%
same,% Collagen Binding Dried Human,[1]; [9],2%
167 (QWTCSGDEYTWHCNYE) [compound 167],% Collagen Binding Dried Human,[1]; [9],4%
168 (QWTCSGDEYTWHCNYE) [compound 168],% Collagen Binding Dried Rat,[2]; [9],2%
same,% Collagen Binding Dried Human,[1]; [9],3%
169 (QWTCSGDEYTWHCNYE) [compound 169],% Collagen Binding Dried Rat,[2]; [9],4%
171 (QWTCSGDEYTWHCNYE) [compound 171],% Collagen Binding Dried Rat,[2]; [9],6%
173 (QWTCSGDEYTWHCNYE) [compound 173],% Collagen Binding Dried Rat,[2]; [9],4%
same,% Collagen Binding Dried Human,[1]; [9],5%
174 (QWTCSGDEYTWHCNYE) [compound 174],% Collagen Binding Dried Human,[1]; [9],5%
175 (QWTCSGDEYTWHCNYE) [compound 175],% Collagen Binding Dried Rat,[2]; [9],2%
same,% Collagen Binding Dried Human,[1]; [9],2%
176 (QWTCSGDEYTWHCNYE) [compound 176],% Collagen Binding Dried Rat,[2]; [9],2%
same,% Collagen Binding Dried Human,[1]; [9],2%
190 ({Glu‑DTPA‑Gd-AEEA}-GQWTCSGDEYTWHCNY[dE]-NH2; disulfide 5-14 (inferred); also: gadolinium complex of Glu-DTPA) [compound 190],% Binding Collagen I Rat,"[2]; Table 17, chelate conjugates",5%
CC(C)C[C@H](NC(=O)[C@@H]1CSSC[C@H](NC(=O)[C@H](Cc2c[nH]cn2)NC(=O)[C@H](Cc2c[nH]c3ccccc23)NC(=O)[C@H](CCC(N)=O)NC(=O)CNC(=O)CC[C@H](NC(=O)[C@H](CNC(=O)[C@@H](CN(CCN(CC(=O)O)CC(=O)O)CC(=O)O)N(CC(=O)O)CC(=O)O)NC(=O)[C@@H](CN(CCN(CC(=O)O)CC(=O)O)CC(=O)O)N(CC(=O)O)CC(=O)O)C(=O)NCCCCCCNC(=O)[C@H](CCC(=O)NCC(=O)N[C@@H](CCC(N)=O)C(=O)N[C@@H](Cc2c[nH]c3ccccc23)C(=O)N[C@@H](Cc2c[nH]cn2)C(=O)N[C@H]2CSSC[C@@H](C(=O)N[C@@H](CC(C)C)C(=O)N[C@@H](Cc3ccc(O)cc3)C(=O)NCC(N)=O)NC(=O)[C@H](Cc3ccc(O)cc3)NC(=O)[C@H](Cc3c[nH]cn3)NC(=O)[C@H](Cc3c[nH]cn3)NC(=O)[C@@H]3CCCN3C(=O)[C@H](Cc3ccccc3)NC(=O)[C@H](CO)NC(=O)[C@H]([C@@H](C)O)NC(=O)[C@H]([C@@H](C)O)NC2=O)NC(=O)[C@H](CNC(=O)[C@@H](CN(CCN(CC(=O)O)CC(=O)O)CC(=O)O)N(CC(=O)O)CC(=O)O)NC(=O)[C@@H](CN(CCN(CC(=O)O)CC(=O)O)CC(=O)O)N(CC(=O)O)CC(=O)O)C(=O)N[C@@H]([C@@H](C)O)C(=O)N[C@@H]([C@@H](C)O)C(=O)N[C@@H](CO)C(=O)N[C@@H](Cc2ccccc2)C(=O)N2CCC[C@H]2C(=O)N[C@@H](Cc2c[nH]cn2)C(=O)N[C@@H](Cc2c[nH]cn2)C(=O)N[C@@H](Cc2ccc(O)cc2)C(=O)N1)C(=O)N[C@@H](Cc1ccc(O)cc1)C(=O)NCC(N)=O [Comp ID 803],Heart,"[3]; 10 min recirculating perfusion, 3 μM in K-H buffer, radiotracer counting",9.1 ± 1.8 nmol/g
same,Heart:Buffer,"[3]; 10 min recirculating perfusion, buffer 3.0 μM",3.02 ± 0.62
"Compound ID 803: dual peptide gadolinium tetramer; bb-DTPA tetramer diacid coupled to N-terminus of SEQ ID NO. 264 peptide ({bb‑DTPA gadolinium tetramer diacid}-GQWHCTTSFPHHYCLYG; disulfide 5-14 (inferred); not fully specified (C-terminus); printed as G-Q-W-H-C-T-T-S-F-P-H-H-Y-C-L-Y-G; reading uncertain; also: dual peptide tetramer: two peptide chains on one diacid, Gd chelated) [dual peptide gadolinium tetramer; 264 peptide]",heart uptake relative to GdDTPA,[3]; 10 minutes,about 7 times
same,amount remaining in heart at 10 minutes after infusion relative to 0 minutes post infusion,[4],54%
